From the nanobody polyreactivity screen of Harvey et al. (2022)

test: yeast display, Sf9 membrane polyspecificity reagent, FACS + sequencing; frameworks hold sequencing errors
Summary of the method: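 Nanobodies came from a synthetic yeast display library in Saccharomyces cerevisiae BJ5465, induced with galactose for 36–48 hours and stained for 1 hour at 4 °C with 10% biotinylated, detergent-solubilized Sf9 membrane reagent. Cells were enriched on streptavidin microbeads and then FACS-sorted, with low and high (top ~1%) gates set on anti-HA fluorescence for expression and streptavidin fluorescence for reagent binding. Each polyreactivity label reflects the gate a clone came from. Genes were amplified by colony PCR, sequenced by MiSeq 2 × 250 and filtered by CDR length.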

Row | Sequence | polyreactivity (PSR sort gate)
1 | QVQLVESGGGLVQAGGSLRLSCAASGSIFGVNAMGWYRQAPGKERELVASITGGDSTNYADSEKGRFTISRDNAKNTVYLQMNSLKPEDTAVYYCAKDHYYRYEEGDYWGQGTQVTVSS | low polyreactivity
2 | QVQLVESGGGLVQAGGSLRLSCAASGFTLYSYAMGWYRQAPGKERELVAAITRSGGITYYADSVKGRFTISRDNAKNTVYLQMNSLKPEDTAVYYCNAYRGGLSSEHYYWGQGTQVTVSS | high polyreactivity
3 | QVQLVESGGGLVQAGGSLRLSCAASGSTFYYNAMGWYRQAPGKEREFVAAISSRGGSTYYADSVKGRFTISRDNAKNTVYLQMNSLKPEDTAVYYCAAKYRHRYDWGQGTQVTVSS | high polyreactivity
4 | QVQLVESGGGLVQAGGSLRLSCAASGRTFYTNAMGWYRQAPGKERELVAVISRGGTTYYADSVKGRFTISRDNAKYTVYFQMNSLKPEDTAVYYCAKQRPSGDSSSQLGSWGQGTQVTVSS | low polyreactivity
5 | QVHLVESGGGLVKAGGSLRLSCAASGGTIFVYMGWYRQDPGKETELVADISGSGGGTYYADSVKGRFTISRDNAMNTVYLQMNSLKPEDTAVYYCAAYYGHTYNGYYYWGQGTQVTVSS | low polyreactivity
6 | QVQLVESGGGLVQAGGSLRLSCAGSGSTLAIYAMGWYRHAPGKERELVAAISGGGSTYADSVKGRFTISRDNAKNTVYLQMISLKPEDTAVYYCNADGWGDRFWSNFRFDYWGQGTQVTVSS | low polyreactivity
7 | QVQLVESGGGLVQAGGSLRLSCAASGRIFRYYAMGWYRQSPGKEREFVAAINWSGGSTYYADSVKGRITISRDNAKNTVYLQMNSLKREDTAVYYCAALITQSYDYWGQGSQVTVSS | high polyreactivity
8 | QVQLVESGGGSDQAGGSLRLSCAASGSTFQYNVMGWYRQAPRKERELVAAIRQSGSTTYYADSVKGRFTISRDNAKNTVYLQMNSLKPEDTAVYYCAKRYHNWANSRMDYWGQGTQVTVSS | low polyreactivity
9 | QVQLVESGGGLVQAGASLRLSCSASGRTFLNYTMGWSRHAPGTERELVAAIRYRDGSTYYADSVKGRFTISRDNAKNTVYLQMNSLKPVDTAVYYCNTRITQVGDYIYDYWGQGTQVTVSS | low polyreactivity
10 | QVQLVESGGGLVQAGGSLRLSCAASGSIFTHNAMGWYRQAPGNERELVAAISSGGSTNYADSVKGRFTISRDNAKNTVYLQMNSLKPEDTAVYYCAKSIDGWYWRRRRYDYWGQGTQVTVSS | low polyreactivity
11 | QVQLVESGGGLVQAGGSLRLSCAASGRILYPYAMGWYRQAPGKERELVAAITFRGGNTYYADSVKGRFTISRDNAKNTVYLQMNSLKPEDTAVYYCAKRGGYWHKFDYWGQGTQVTVSS | high polyreactivity
12 | QVQLVESGGGLVQAGGSLRLSCAASGRIFGGYTMGWSRPAPGKERELVAAITGSGGRTYYADSVKGRFTISRDNAKNTVYLQMNSLQPEDTAVYYCNTVYRYLYSWGQGTQVTVSS | high polyreactivity
13 | QVQLVESGGGLVQAGGSLRLSCAASGSTFGDYDMGWYRQAPGKERELVAAITIGGITTYADSVKGRFTISRDNAKNTVYLQMNSLKPEDTAVYYCAAAERGDWDDYWGQGTQVTVSS | low polyreactivity
14 | QVQLVESGGGLVQAGGSLRLSCAASGSTFGYNTMGWYRQAPGNERELVAAITGTGRTNYADSVKGRFTISRDNAKNTVYLQMNRLNPEDTAVYYCNARQAGTRYKYGYYGRYYWGQGTQVTVSS | high polyreactivity
15 | QVQLVESGAGLVQAGGSLRLSCAASGRIFYKYVMGWYRQAPGKERELVATITSGGSTYYADSVKGRFTISRDNAKNTVYLQMNSLKPEDTAVYYCATKQSRTRYDRYGYWGQGTQVNVSS | high polyreactivity
16 | QVQLVESGGGLVQAGGSLRLSCAASGIIFAYAMGWYRQAPGKERELVAAISGRDGSTYYADSVKGRFTISRDNAKNTVYLQMNSLKPEDTAVYYCAKRISYLPVEMDYWGQGTQVTVSS | low polyreactivity
17 | QVQLVESGGGLVQAGGSLRLSCAASGRIFGVYAMGWYRQAPGKERELVAAIYSGSSTYYADSVKGRFTISRDNAKNTVYLQMNSLKPEDTAVYYCNADTPYWVRWKYDYWGQGTQVTVSS | low polyreactivity
18 | QVQHVESGGGIVQAGGSLRLSCAASGFTFWYYAMGWYRQAPGKERELVAVINTSGGSTYADSVKGRFTISRDNAKNTVFLQMNSLKPEDTAVYYCNKDFIYGYDAASYRPEYDYWGQGTQVTVSS | low polyreactivity
19 | QVKLVDSGGGLVQAGGSLRLSCAASGRIAVNAMGWYRQAPGKERELVAAISVSGGSTNYADSVKGRFTISRDNAKNTVYLQMNSLKPEDTAVYYCAARAFDPILRNDYSGQGTQVTVSS | low polyreactivity
20 | QVQLVESGGGLVQAGGSLRLSCAASGHTFRYYAMGWYRQAPGKERELVAAITGGGGSTYYADSVKGRFTISRDNAKNTVYLQMNSLKPEDTAVYYFATGGVSGIVGGDYWGQGTQVTVSS | low polyreactivity
21 | QVQLVESRGGLVQAGGSLRLSCAASGSIFLSYAMGWYRQAPGKERELVADISRSGGSTYYADSVKGRFTISRDNAKNTVYLQMNSLKPEDTAVYYCAVYIAVYEGDYWGQGSQVTVSS | low polyreactivity
